Test results: patent US9206411B2, “Staphylococcal Phage2638A endolysin amidase domain is lytic for Staphylococcus aureus” (priority 2012, dated 2015)

Legend:
Test in all cases: Plate lysis, susceptibility of strains to 2638A (Table 1)
Type in all cases: cell-based
S. aureus ANG 133 = test system: S. aureus ANG 133
Method: (§1) Purified proteins for each construct were diluted in sterile nickel column elution buffer, and 6 μL of lysostaphin (11 μg) or the constructs (0.2 nmoles or ˜11 μg for the repaired construct 2638A 1-180Mut-486) was spotted onto a freshly spread lawn of S. aureus strain NRS119 (SA LinR #12; linezolid resistant) growing cells that had air dried for 30 min on tryptic soy agar (TSA) plates. L=[…] Lysostaphin (Sigma); Spot 1=11 μg; all other constructs are 0.2 nmoles (˜11 μg for the repaired construct 2638A 1-180Mut-486) […]. The spotted plates were air dried for 10 min in a laminar flow hood and incubated overnight in a 37° C. environment. Scoring of the cleared spots occurred within 20 h of plating the cells.
(§2) The Plate Lysis assay results (FIG. 3) agree with the turbidity reduction assay. Each of the M23 peptidase dependent or SH3b-truncating constructs showing weak activity on S. aureus strain Newman strain. In addition to the Plate Lysis results in FIG. 3, we have also examined numerous strains with reduced but real lytic activity (Table 1). However, the plate lysis results with the 2638A endolysin constructs are extremely novel in appearance. Plate lysis results are routinely visualized as a discrete cleared spot on a lawn of bacteria after a single overnight of culture. […] In contrast, the 2638A endolysin is unique in that sometimes this cleared zone requires multiple days to appear. […] Thus, there is also a likelihood that the enzyme might work preferentially on late log or stationary phase cells in the plate lysis assay, as the 3 day old culture is likely not growing as quickly as the freshly-plated overnight culture.

S. aureus Reynolds (CP-) = test system: S. aureus Reynolds (CP-)
Method: as §1, §2

S. aureus SA113 ΔtagO = test system: S. aureus SA113 ΔtagO
Method: as §1, §2

S. aureus Tanji 26 = test system: S. aureus Tanji 26
Method: as §1, §2

S. aureus Tanji 2 = test system: S. aureus Tanji 2
Method: as §1, §2

S. aureus Tanji 31 = test system: S. aureus Tanji 31
Method: as §1, §2

S. aureus Tanji 3 = test system: S. aureus Tanji 3
Method: as §1, §2

S. aureus Tanji 9 = test system: S. aureus Tanji 9
Method: as §1, §2

S. aureus MN8 ΔsarA = test system: S. aureus MN8 ΔsarA; set-up: key to Susceptibility to lysis by 2638A, day 1: − = >100 pmol; (+) = very faint lysis zone; + = 100 pmol; ++ = 10 pmol; +++ = 1 pmol
Method: as §1, §2

S. aureus NRS 383 (MRSA) = test system: S. aureus NRS 383 (MRSA); set-up: key to Susceptibility to lysis by 2638A, day 1: − = >100 pmol; (+) = very faint lysis zone; + = 100 pmol; ++ = 10 pmol; +++ = 1 pmol
Method: as §1, §2

S. aureus NRS 384 (MRSA) = test system: S. aureus NRS 384 (MRSA); set-up: key to Susceptibility to lysis by 2638A, day 3+: − = >100 pmol; (+) = very faint lysis zone; + = 100 pmol; ++ = 10 pmol; +++ = 1 pmol
Method: as §1, §2

S. aureus Tanji 21 = test system: S. aureus Tanji 21; set-up: key to Susceptibility to lysis by 2638A, day 3+: − = >100 pmol; (+) = very faint lysis zone; + = 100 pmol; ++ = 10 pmol; +++ = 1 pmol
Method: as §1, §2

S. aureus Tanji 47 = test system: S. aureus Tanji 47; set-up: key to Susceptibility to lysis by 2638A, day 3+: − = >100 pmol; (+) = very faint lysis zone; + = 100 pmol; ++ = 10 pmol; +++ = 1 pmol
Method: as §1, §2

S. simulans = test system: S. simulans; set-up: key to Susceptibility to lysis by 2638A, day 3+: − = >100 pmol; (+) = very faint lysis zone; + = 100 pmol; ++ = 10 pmol; +++ = 1 pmol
Method: as §1, §2

S. aureus Tanji 29 = test system: S. aureus Tanji 29; set-up: key: − = >100 pmol; (+) = very faint lysis zone; + = 100 pmol; ++ = 10 pmol; +++ = 1 pmol
Method: as §1
The Plate Lysis assay results (FIG. 3) agree with the turbidity reduction assay. Each of the M23 peptidase dependent or SH3b-truncating constructs showing weak activity on S. aureus strain Newman strain. In addition to the Plate Lysis results in FIG. 3, we have also examined numerous strains with reduced but real lytic activity (Table 1). However, the plate lysis results with the 2638A endolysin constructs are extremely novel in appearance. Plate lysis results are routinely visualized as a discrete cleared spot on a lawn of bacteria after a single overnight of culture. […]

B1: 2638A Endolysin: 486 amino acid staphylococcal phage 2638A endolysin (SEQ ID NO:4), C-terminally 6×His-tagged; M23 peptidase, amidase, SH3b domains (protein)
chain: MLTAIDYLTKKGWKISSDPRTYDGYPKNYGYRNYHENGINYDEFCGGYHRAFDVYSNETNDVPAVTSGTVIEANDYGNFGGTFVIRDANDNDWIYGHLQRGSMRFVVGDKVNQGDIIGLQGNSNYYDNPMSVHLHLQLRPKDAKKDEKSQVCSGLAMEKYDITNLNAKQDKSKNGSVKELKHIYSNHIKGNKITAPKPSIQGVVIHNDYGSMTPSQYLPWLYARENNGTHVNGWASVYANRNEVLWYHPTDYVEWHCGNQWANANLIGFEVCESYPGRISDKLFLENEEATLKVAADVMKSYGLPVNRNTVRLHNEFFGTSCPHRSWDLHVGKGEPYTTTNINKMKDYFIKRIKHYYDGGKLEVSKAATIKQSDVKQEVKKQEAKQIVKATDWKQNKDGIWYKAEHASFTVTAPEGIITRYKGPWTGHPQAGVLQKGQTIKYDEVQKFDGHVWVSWETFEGETVYMPVRTWDAKTGKVGKLWGEIKLEHHHHHH
modifications: C-terminal His6 tag; Mutated Phage 2638a
notes: M23 peptidase, amidase, SH3b domains
+ (+ = 100 pmol): Susceptibility to lysis by 2638A, day 3+ (S. aureus Tanji 26; day 3+) | Susceptibility to lysis by 2638A, day 3+ (S. aureus Tanji 2; day 3+)
++ (++ = 10 pmol): Susceptibility to lysis by 2638A, day 3+ (S. aureus NRS 383 (MRSA); day 3+)
+++ (+++ = 1 pmol): Susceptibility to lysis by 2638A, day 1 (S. aureus SA113 ΔtagO; day 1) | Susceptibility to lysis by 2638A, day 3+ (S. aureus SA113 ΔtagO; day 3+) | Susceptibility to lysis by 2638A, day 3+ (S. aureus MN8 ΔsarA; day 3+)
− (− = >100 pmol): Susceptibility to lysis by 2638A, day 1 (S. aureus ANG 133; day 1) | Susceptibility to lysis by 2638A, day 3+ (S. aureus ANG 133; day 3+) | Susceptibility to lysis by 2638A, day 1 (S. aureus Reynolds (CP-); day 1) | Susceptibility to lysis by 2638A, day 3+ (S. aureus Reynolds (CP-); day 3+) | Susceptibility to lysis by 2638A, day 1 (S. aureus Tanji 26; day 1) | Susceptibility to lysis by 2638A, day 1 (S. aureus Tanji 2; day 1) | Susceptibility to lysis by 2638A, day 1 (S. aureus Tanji 31; day 1) | Susceptibility to lysis by 2638A, day 3+ (S. aureus Tanji 31; day 3+) | Susceptibility to lysis by 2638A, day 1 (S. aureus Tanji 3; day 1) | Susceptibility to lysis by 2638A, day 3+ (S. aureus Tanji 3; day 3+) | Susceptibility to lysis by 2638A, day 1 (S. aureus Tanji 9; day 1) | Susceptibility to lysis by 2638A, day 3+ (S. aureus Tanji 9; day 3+) | Susceptibility to lysis by 2638A, day 1 (S. aureus NRS 384 (MRSA); day 1) | Susceptibility to lysis by 2638A, day 1 (S. aureus Tanji 21; day 1) | Susceptibility to lysis by 2638A, day 1 (S. aureus Tanji 47; day 1) | Susceptibility to lysis by 2638A, day 1 (S. simulans; day 1)
(+): Susceptibility to lysis by 2638A, day 1 (S. aureus MN8 ΔsarA; day 1) | Susceptibility to lysis by 2638A, day 1 (S. aureus NRS 383 (MRSA); day 1) | Susceptibility to lysis by 2638A, day 3+ (S. aureus NRS 384 (MRSA); day 3+) | Susceptibility to lysis by 2638A, day 3+ (S. aureus Tanji 21; day 3+) | Susceptibility to lysis by 2638A, day 3+ (S. aureus Tanji 47; day 3+) | Susceptibility to lysis by 2638A, day 3+ (S. simulans; day 3+) | Susceptibility to lysis by 2638A, day 1 (S. aureus Tanji 29)
